# Measurements as given in patent US20240376200A1 (Seagen, published 2024).
# Columns and labels:
# [1] = circular dichroism thermal denaturation at 222 nm
# [2] = biological target: recombinant Antigen 1 (recombinant Ab1 target; recombinant integrin αvβ6 antigen); test: saturation binding ELISA
# [3] = biological target: Antigen 1 (Ab1 target) expressed on HEK293 / HEK-293F cells; test: saturation binding FACS, HEK293 cells
# recombinant human CD47 = biological target: T1, recombinant human CD47 (human, UniProt Q08722 19-139, limits assumed); test: saturation binding ELISA
# T1 construct: also called recombinant CD47 antigen
# Sequence of recombinant Antigen 1 (recombinant Ab1 target; recombinant integrin αvβ6 antigen) (P06756 31-992, chain 1 of 2): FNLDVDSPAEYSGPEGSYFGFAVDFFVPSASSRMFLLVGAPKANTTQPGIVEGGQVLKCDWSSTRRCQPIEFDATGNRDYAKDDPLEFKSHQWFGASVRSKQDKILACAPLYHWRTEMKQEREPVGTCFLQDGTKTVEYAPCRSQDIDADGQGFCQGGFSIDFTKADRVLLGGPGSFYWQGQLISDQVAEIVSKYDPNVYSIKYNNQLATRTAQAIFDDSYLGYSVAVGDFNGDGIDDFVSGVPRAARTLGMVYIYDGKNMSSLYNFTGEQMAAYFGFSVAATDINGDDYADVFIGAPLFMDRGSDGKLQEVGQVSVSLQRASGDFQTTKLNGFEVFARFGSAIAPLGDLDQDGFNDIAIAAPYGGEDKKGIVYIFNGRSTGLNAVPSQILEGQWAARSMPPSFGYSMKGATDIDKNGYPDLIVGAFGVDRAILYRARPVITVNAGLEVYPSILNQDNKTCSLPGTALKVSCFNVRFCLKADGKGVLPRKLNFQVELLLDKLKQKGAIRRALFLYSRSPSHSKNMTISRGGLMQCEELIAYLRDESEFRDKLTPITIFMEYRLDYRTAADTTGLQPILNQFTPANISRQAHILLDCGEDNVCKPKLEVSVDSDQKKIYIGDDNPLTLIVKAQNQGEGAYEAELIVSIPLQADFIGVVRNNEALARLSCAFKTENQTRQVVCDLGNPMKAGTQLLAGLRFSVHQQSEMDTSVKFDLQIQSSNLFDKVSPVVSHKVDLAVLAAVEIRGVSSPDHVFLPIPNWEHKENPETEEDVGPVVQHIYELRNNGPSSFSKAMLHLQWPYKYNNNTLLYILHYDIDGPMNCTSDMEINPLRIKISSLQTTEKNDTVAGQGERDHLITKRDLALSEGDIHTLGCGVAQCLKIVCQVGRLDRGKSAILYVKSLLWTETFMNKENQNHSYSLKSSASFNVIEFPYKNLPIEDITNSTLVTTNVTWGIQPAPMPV
# Sequence of recombinant Antigen 1 (recombinant Ab1 target; recombinant integrin αvβ6 antigen) (P18564 22-709, chain 2 of 2, further chain): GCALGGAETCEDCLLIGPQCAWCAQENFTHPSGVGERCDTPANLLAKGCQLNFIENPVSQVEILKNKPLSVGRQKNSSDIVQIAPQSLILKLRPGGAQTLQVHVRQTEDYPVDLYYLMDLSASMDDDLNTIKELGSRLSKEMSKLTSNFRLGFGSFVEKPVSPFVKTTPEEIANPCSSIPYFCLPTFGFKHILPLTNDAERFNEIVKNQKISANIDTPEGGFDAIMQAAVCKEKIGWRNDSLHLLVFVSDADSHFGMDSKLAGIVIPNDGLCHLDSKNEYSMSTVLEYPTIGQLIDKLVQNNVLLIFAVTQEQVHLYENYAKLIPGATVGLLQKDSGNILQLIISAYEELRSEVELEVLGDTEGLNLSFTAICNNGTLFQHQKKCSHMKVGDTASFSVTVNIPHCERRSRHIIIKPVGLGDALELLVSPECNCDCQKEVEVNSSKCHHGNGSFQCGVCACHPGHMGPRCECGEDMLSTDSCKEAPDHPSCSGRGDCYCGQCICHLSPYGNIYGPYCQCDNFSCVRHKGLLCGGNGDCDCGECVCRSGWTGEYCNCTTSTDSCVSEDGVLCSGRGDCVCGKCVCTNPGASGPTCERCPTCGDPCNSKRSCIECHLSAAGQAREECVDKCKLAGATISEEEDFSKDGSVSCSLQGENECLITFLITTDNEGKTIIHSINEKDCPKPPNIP
# Sequence of Antigen 1 (Ab1 target) expressed on HEK293 / HEK-293F cells (P06756 31-1048, chain 1 of 2): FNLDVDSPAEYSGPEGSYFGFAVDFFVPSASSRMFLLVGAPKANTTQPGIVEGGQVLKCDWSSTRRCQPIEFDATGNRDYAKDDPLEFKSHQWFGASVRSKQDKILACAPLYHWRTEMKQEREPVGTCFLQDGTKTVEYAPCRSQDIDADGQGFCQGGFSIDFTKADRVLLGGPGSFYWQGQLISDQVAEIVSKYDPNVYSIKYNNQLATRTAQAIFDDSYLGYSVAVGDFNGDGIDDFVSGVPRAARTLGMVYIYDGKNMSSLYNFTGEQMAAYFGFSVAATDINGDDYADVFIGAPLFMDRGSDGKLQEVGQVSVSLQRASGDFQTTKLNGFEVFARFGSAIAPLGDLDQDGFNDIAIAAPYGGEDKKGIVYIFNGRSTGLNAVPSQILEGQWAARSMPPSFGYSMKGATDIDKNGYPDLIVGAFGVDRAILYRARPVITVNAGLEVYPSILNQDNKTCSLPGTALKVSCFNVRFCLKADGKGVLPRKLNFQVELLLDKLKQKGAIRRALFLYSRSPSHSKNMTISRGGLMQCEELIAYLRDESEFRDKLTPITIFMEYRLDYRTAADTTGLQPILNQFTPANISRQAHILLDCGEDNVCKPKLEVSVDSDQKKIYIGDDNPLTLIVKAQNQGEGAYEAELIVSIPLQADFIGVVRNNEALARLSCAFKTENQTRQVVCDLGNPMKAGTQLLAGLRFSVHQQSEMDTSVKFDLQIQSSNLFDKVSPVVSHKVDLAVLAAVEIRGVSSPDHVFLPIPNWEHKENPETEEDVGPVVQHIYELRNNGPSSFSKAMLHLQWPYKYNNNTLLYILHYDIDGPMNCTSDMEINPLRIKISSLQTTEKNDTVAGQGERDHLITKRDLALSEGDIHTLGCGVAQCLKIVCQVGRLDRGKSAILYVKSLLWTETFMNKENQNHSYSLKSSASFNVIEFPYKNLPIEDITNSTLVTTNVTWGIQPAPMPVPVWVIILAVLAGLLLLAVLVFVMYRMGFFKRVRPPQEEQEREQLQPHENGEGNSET
# Sequence of Antigen 1 (Ab1 target) expressed on HEK293 / HEK-293F cells (P18564 22-788, chain 2 of 2, further chain): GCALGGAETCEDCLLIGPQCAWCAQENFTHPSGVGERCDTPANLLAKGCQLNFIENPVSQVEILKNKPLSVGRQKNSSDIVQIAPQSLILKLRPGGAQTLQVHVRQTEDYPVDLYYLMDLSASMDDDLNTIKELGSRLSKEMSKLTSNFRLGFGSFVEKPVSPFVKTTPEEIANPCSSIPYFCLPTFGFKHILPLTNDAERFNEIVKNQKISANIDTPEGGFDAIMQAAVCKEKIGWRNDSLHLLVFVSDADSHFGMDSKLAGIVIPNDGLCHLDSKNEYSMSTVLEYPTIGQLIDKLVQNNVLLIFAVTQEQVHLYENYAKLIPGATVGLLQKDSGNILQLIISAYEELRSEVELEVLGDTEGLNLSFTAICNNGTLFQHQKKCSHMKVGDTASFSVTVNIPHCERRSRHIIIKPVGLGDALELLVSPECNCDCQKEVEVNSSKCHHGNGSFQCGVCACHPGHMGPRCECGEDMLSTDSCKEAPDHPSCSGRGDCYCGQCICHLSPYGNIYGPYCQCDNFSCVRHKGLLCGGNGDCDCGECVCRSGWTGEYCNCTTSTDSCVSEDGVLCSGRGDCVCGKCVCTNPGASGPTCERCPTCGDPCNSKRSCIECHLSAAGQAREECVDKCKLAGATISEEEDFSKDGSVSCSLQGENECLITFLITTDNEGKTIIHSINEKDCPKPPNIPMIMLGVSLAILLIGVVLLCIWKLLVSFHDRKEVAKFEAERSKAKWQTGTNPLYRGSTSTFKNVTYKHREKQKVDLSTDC
binder,measurement,setting,value
QGASTSVDELQAEVDQLEDENYAIKTKLAQLRKKVEKLGSIPVS [Coil 148 heavy chain peptide for CD studies (VelB L24I/V28L)],Tm (melting temperature of the heavy chain homodimer),[1],Tm=40.8 °C
QGASTSVDELQAEVDQLEDENYALKTKVAQLRKKVEKLGSIPVS [Vel heavy chain peptide for CD studies (VelB)],Tm (melting temperature of the heavy chain homodimer),[1],Tm=23.3 °C
QGASTSVDELQAEVDQLEDENYAIKTKVAQLRKKVEKLGSIPVS [Coil 10 heavy chain peptide for CD studies (VelB L24I)],Tm (melting temperature of the heavy chain homodimer),[1],Tm=21.0 °C
"Vel-IPV-Ab1 Coil 134 (antibody, part only; not given: Ab1 heavy and light chains, part only) heavy, part: QGASTSVDELQAEVDQLEDENYAKKTKVAQLRKKVEKLGSIPVSLRSG light, part: QGASTTVAQLEEKVKTLRAENYEIKSEVQRLEEQVAQLGSIPVSLRSG",Binding Bmax (OD450),[2],0.7 OD450
same,EC50,[2],14.7 nM
same,EC50 fold change from Ab1,[2],67 fold
"Vel-IPV-Ab1 Coil 118 (antibody, part only; not given: Ab1 heavy and light chains, part only) heavy, part: QGASTSVDELQAEVDQLEDENYAFKTKVAQLRKKVEKLGSIPVSLRSG light, part: QGASTTVAQLEEKVKTLRAENYESKSEVQRLEEQVAQLGSIPVSLRSG",Binding Bmax (OD450),[2],0.8 OD450
same,EC50,[2],45.2 nM
same,EC50 fold change from Ab1,[2],181 fold
same,EC50,[3],16.8 nM
same,EC50 fold change from Ab1,[3],120 fold
"Vel-IPV-hB6H12.3 Coil 152 (antibody, part only; not given: hB6H12.3 heavy and light chains, part only) heavy, part: QGASTSVDELQAEVDQLEDENYAHKTKVAQLRKKVEKLGSIPVSLRSG light, part: QGASTTVAQLEEKVKTLRAENYELKSEAQREEEQVAQLGSIPVSLRSG",Binding Bmax (OD450),recombinant human CD47,1.5 OD450
same,EC50,recombinant human CD47,31.7 nM
same,EC50 fold change from hB6H12.3,recombinant human CD47,12 fold
"Vel-IPV-Ab1 Coil 110 (antibody, part only; not given: Ab1 heavy and light chains, part only) heavy, part: QGASTSVDELQAEVDQLEDENYAGKTKVAQLRKKVEKLGSIPVSLRSG light, part: QGASTTVAQLEEKVKTLRAENYEWKSEVQRLEEQVAQLGSIPVSLRSG",Binding Bmax (OD450),[2],1 OD450
same,EC50,[2],548 nM
same,EC50 fold change from Ab1,[2],1890 fold
same,EC50,[3],42.9 nM
same,EC50 fold change from Ab1,[3],306 fold
"Vel-IPV-Ab1 Coil 137 (antibody, part only; not given: Ab1 heavy and light chains, part only) heavy, part: QGASTSVDELQAEVDQLEDENYAVKTKVAQLRKKVEKLGSIPVSLRSG light, part: QGASTTVAQLEEKVKTLRAENYELKSEVQRLEEQVAQLGSIPVSLRSG",Binding Bmax (OD450),[2],1.2 OD450
same,EC50,[2],128 nM
same,EC50 fold change from Ab1,[2],584 fold
"Vel-IPV-Ab1 Coil 111 (antibody, part only; not given: Ab1 heavy and light chains, part only) heavy, part: QGASTSVDELQAEVDQLEDENYAGKTKVAQLRKKVEKLGSIPVSLRSG light, part: QGASTTVAQLEEKVKTLRAENYEFKSEVQRLEEQVAQLGSIPVSLRSG",Binding Bmax (OD450),[2],1.3 OD450
same,EC50,[2],619 nM
same,EC50 fold change from Ab1,[2],2140 fold
same,EC50,[3],9.1 nM
same,EC50 fold change from Ab1,[3],65 fold
"Vel-IPV-Ab1 Coil 117 (antibody, part only; not given: Ab1 heavy and light chains, part only) heavy, part: QGASTSVDELQAEVDQLEDENYAFKTKVAQLRKKVEKLGSIPVSLRSG light, part: QGASTTVAQLEEKVKTLRAENYEWKSEVQRLEEQVAQLGSIPVSLRSG",Binding Bmax (OD450),[2],1.1 OD450
same,EC50,[2],322 nM
same,EC50 fold change from Ab1,[2],1110 fold
same,EC50,[3],144 nM
same,EC50 fold change from Ab1,[3],1030 fold
"Vel-IPV-Ab1 Coil 145 (antibody, part only; not given: Ab1 heavy and light chains, part only) heavy, part: QGASTSVDELQAEVDQLEDENYALKTKIAQLRKKVEKLGSIPVSLRSG light, part: QGASTTVAQLEEKVKTLRAENYEAKSEVQRLEEQVAQLGSIPVSLRSG",Binding Bmax (OD450),[2],1.2 OD450
same,EC50,[2],69.6 nM
same,EC50 fold change from Ab1,[2],290 fold
"Vel-IPV-Ab1 Coil 106 (antibody, part only; not given: Ab1 heavy and light chains, part only) heavy, part: QGASTSVDELQAEVDQLEDENYAYKTKVAQLRKKVEKLGSIPVSLRSG light, part: QGASTTVAQLEEKVKTLRAENYEFKSEVQRLEEQVAQLGSIPVSLRSG",Binding Bmax (OD450),[2],0.8 OD450
same,EC50,[2],190 nM
same,EC50 fold change from Ab1,[2],657 fold
same,EC50,[3],38.4 nM
same,EC50 fold change from Ab1,[3],274 fold
"Vel-IPV-Ab1 Coil 114 (antibody, part only; not given: Ab1 heavy and light chains, part only) heavy, part: QGASTSVDELQAEVDQLEDENYAWKTKVAQLRKKVEKLGSIPVSLRSG light, part: QGASTTVAQLEEKVKTLRAENYEFKSEVQRLEEQVAQLGSIPVSLRSG",Binding Bmax (OD450),[2],1.1 OD450
same,EC50,[2],278 nM
same,EC50 fold change from Ab1,[2],959 fold
same,EC50,[3],59.3 nM
same,EC50 fold change from Ab1,[3],423 fold
"Vel-IPV-Ab1 Coil 103 (antibody, part only; not given: Ab1 heavy and light chains, part only) heavy, part: QGASTSVDELQAEVDQLEDENYAGKTKVAQLRKKVEKLGSIPVSLRSG light, part: QGASTTVAQLEEKVKTLRAENYEYKSEVQRLEEQVAQLGSIPVSLRSG",Binding Bmax (OD450),[2],0.6 OD450
same,EC50,[2],75.3 nM
same,EC50 fold change from Ab1,[2],260 fold
same,EC50,[3],2.1 nM
same,EC50 fold change from Ab1,[3],15 fold
"Vel-IPV-hB6H12.3 Coil 149 (antibody, part only; not given: hB6H12.3 heavy and light chains, part only) heavy, part: QGASTSVDELQAEVDQLEDENYAIKTKIAQLRKKVEKLGSIPVSLRSG light, part: QGASTTVAQLEEKVKTLRAENYEAKSEVQRLEEQVAQLGSIPVSLRSG",Binding Bmax (OD450),recombinant human CD47,1.7 OD450
same,EC50,recombinant human CD47,298 nM
same,EC50 fold change from hB6H12.3,recombinant human CD47,117 fold
"Vel-IPV-Ab1 Coil 142 (antibody, part only; not given: Ab1 heavy and light chains, part only) heavy, part: QGASTSVDELQAEVDQLEDENYALKTKKAQLRKKVEKLGSIPVSLRSG light, part: QGASTTVAQLEEKVKTLRAENYELKSEIQRLEEQVAQLGSIPVSLRSG",Binding Bmax (OD450),[2],1.8 OD450
same,EC50,[2],101 nM
same,EC50 fold change from Ab1,[2],461 fold
"Vel-IPV-Ab1 Coil 149 (antibody, part only; not given: Ab1 heavy and light chains, part only) heavy, part: QGASTSVDELQAEVDQLEDENYAIKTKIAQLRKKVEKLGSIPVSLRSG light, part: QGASTTVAQLEEKVKTLRAENYEAKSEVQRLEEQVAQLGSIPVSLRSG",Binding Bmax (OD450),[2],1.1 OD450
same,EC50,[2],43.6 nM
same,EC50 fold change from Ab1,[2],182 fold
"Vel-IPV-hB6H12.3 Coil 164 (antibody, part only; not given: hB6H12.3 heavy and light chains, part only) heavy, part: QGASTSVDELQAEVDQLEDENYASKTKVAQQRKKVEKLGSIPVSLRSG light, part: QGASTTVAQLEEKVKTLRAENYERKSEVQRVEEQVAQLGSIPVSLRSG",Binding Bmax (OD450),recombinant human CD47,1.5 OD450
same,EC50,recombinant human CD47,21.5 nM
same,EC50 fold change from hB6H12.3,recombinant human CD47,8 fold
"Vel-IPV-Ab1 Coil 122 (antibody, part only; not given: Ab1 heavy and light chains, part only) heavy, part: QGASTSVDELQAEVDQLEDENYAYKTKVAQLRKKVEKLGSIPVSLRSG light, part: QGASTTVAQLEEKVKTLRAENYEAKSEVQRLEEQVAQLGSIPVSLRSG",Binding Bmax (OD450),[2],0.6 OD450
same,EC50,[2],85.9 nM
same,EC50 fold change from Ab1,[2],344 fold
same,EC50,[3],14.5 nM
same,EC50 fold change from Ab1,[3],104 fold
"Vel-IPV-Ab1 Coil 129 (antibody, part only; not given: Ab1 heavy and light chains, part only) heavy, part: QGASTSVDELQAEVDQLEDENYASKTKVAQLRKKVEKLGSIPVSLRSG light, part: QGASTTVAQLEEKVKTLRAENYEYKSEVQRLEEQVAQLGSIPVSLRSG",Binding Bmax (OD450),[2],0.6 OD450
same,EC50,[2],76.6 nM
same,EC50 fold change from Ab1,[2],306 fold
same,EC50,[3],2.6 nM
same,EC50 fold change from Ab1,[3],19 fold
"Vel-IPV-Ab1 Coil 126 (antibody, part only; not given: Ab1 heavy and light chains, part only) heavy, part: QGASTSVDELQAEVDQLEDENYAYKTKVAQLRKKVEKLGSIPVSLRSG light, part: QGASTTVAQLEEKVKTLRAENYESKSEVQRLEEQVAQLGSIPVSLRSG",Binding Bmax (OD450),[2],0.7 OD450
same,EC50,[2],111 nM
same,EC50 fold change from Ab1,[2],444 fold
same,EC50,[3],9.5 nM
same,EC50 fold change from Ab1,[3],68 fold
"Vel-IPV-Ab1 Coil 151 (antibody, part only; not given: Ab1 heavy and light chains, part only) heavy, part: QGASTSVDELQAEVDQLEDENYALKTKLAQLRKKVEKLGSIPVSLRSG light, part: QGASTTVAQLEEKVKTLRAENYELKSELQRLEEQVAQLGSIPVSLRSG",Binding Bmax (OD450),[2],1.5 OD450
same,EC50,[2],198 nM
same,EC50 fold change from Ab1,[2],827 fold
"Vel-IPV-Ab1 Coil 124 (antibody, part only; not given: Ab1 heavy and light chains, part only) heavy, part: QGASTSVDELQAEVDQLEDENYASKTKVAQLRKKVEKLGSIPVSLRSG light, part: QGASTTVAQLEEKVKTLRAENYEWKSEVQRLEEQVAQLGSIPVSLRSG",Binding Bmax (OD450),[2],0.6 OD450
same,EC50,[2],129 nM
same,EC50 fold change from Ab1,[2],517 fold
same,EC50,[3],14.1 nM
same,EC50 fold change from Ab1,[3],10 fold
"Vel-IPV-Ab1 Coil 116 (antibody, part only; not given: Ab1 heavy and light chains, part only) heavy, part: QGASTSVDELQAEVDQLEDENYAAKTKVAQLRKKVEKLGSIPVSLRSG light, part: QGASTTVAQLEEKVKTLRAENYEFKSEVQRLEEQVAQLGSIPVSLRSG",Binding Bmax (OD450),[2],0.7 OD450
same,EC50,[2],368 nM
same,EC50 fold change from Ab1,[2],1270 fold
same,EC50,[3],7.5 nM
same,EC50 fold change from Ab1,[3],54 fold
"Vel-IPV-Ab1 Coil 107 (antibody, part only; not given: Ab1 heavy and light chains, part only) heavy, part: QGASTSVDELQAEVDQLEDENYASKTKVAQLRKKVEKLGSIPVSLRSG light, part: QGASTTVAQLEEKVKTLRAENYEFKSEVQRLEEQVAQLGSIPVSLRSG",Binding Bmax (OD450),[2],0.6 OD450
same,EC50,[2],133 nM
same,EC50 fold change from Ab1,[2],458 fold
same,EC50,[3],2.8 nM
same,EC50 fold change from Ab1,[3],20 fold
"Vel-IPV-Ab1 Coil 115 (antibody, part only; not given: Ab1 heavy and light chains, part only) heavy, part: QGASTSVDELQAEVDQLEDENYAWKTKVAQLRKKVEKLGSIPVSLRSG light, part: QGASTTVAQLEEKVKTLRAENYEYKSEVQRLEEQVAQLGSIPVSLRSG",Binding Bmax (OD450),[2],1 OD450
same,EC50,[2],184 nM
same,EC50 fold change from Ab1,[2],633 fold
same,EC50,[3],152 nM
same,EC50 fold change from Ab1,[3],1090 fold
"Vel-IPV-Ab1 Coil 121 (antibody, part only; not given: Ab1 heavy and light chains, part only) heavy, part: QGASTSVDELQAEVDQLEDENYAWKTKVAQLRKKVEKLGSIPVSLRSG light, part: QGASTTVAQLEEKVKTLRAENYEAKSEVQRLEEQVAQLGSIPVSLRSG",Binding Bmax (OD450),[2],0.9 OD450
same,EC50,[2],140 nM
same,EC50 fold change from Ab1,[2],562 fold
same,EC50,[3],132 nM
same,EC50 fold change from Ab1,[3],943 fold
"Vel-IPV-Ab1 Coil 138 (antibody, part only; not given: Ab1 heavy and light chains, part only) heavy, part: QGASTSVDELQAEVDQLEDENYALKTKLAQLRKKVEKLGSIPVSLRSG light, part: QGASTTVAQLEEKVKTLRAENYELKSEIQRLEEQVAQLGSIPVSLRSG",Binding Bmax (OD450),[2],1.8 OD450
same,EC50,[2],117 nM
same,EC50 fold change from Ab1,[2],532 fold
